In US12006519B2, “Polymerase mutants and use with 3′-OH unblocked reversible terminators” (Agilent Technologies, Inc., priority 2021, dated 2024):

What was measured:
Format in all cases: biochemical
[1] = test system: LTA-2; assay: Template-independent incorporation of LTA-2, LTU-2, LTG-2, LTC-2 to priming strands
Procedure: The template-independent DNA synthesis reactions employed 7.5 U TdT (Promega) or 180 nM (3×over primer) Pfu26 (D141A/E143A/A486L/Y546H/K477W/L409Y) or Pfu48 (D141A/E143A/A486R/Y546H/K477W/L409Y). Varying concentrations of dATP were added to 2 μM (TdT) or 60 nM (Pfu) T7 FOR primer (6′Fam […]) (SEQ ID NO:6) in duplicate reactions containing 1×TdT buffer with CoCl2(Promega) or 1×ThermoPol buffer (NEB). Reactions were incubated for 30 min. at 37° C. (TdT) or 60° C. (Pfu), and then inactivated with heat (TdT; 10 min. at 70° C.) or EDTA (1 ul 500 uM EDTA). Reaction products were exposed to UV using a Stratalinker (15-watt bulbs, […], 10 min). Reactions were diluted in water (TdT, 1:333; Pfu, 1:10) and 1 μl (TdT) or 0.5 μl (Pfu) aliquots were brought up to 10 μl with HiDI/LIZ 120 Size Standard. Products were heated at 95° C. for 5 min., cooled on ice for 2 min., and then analyzed on an ABI 3500 capillary electrophoresis system ([…] capillary, filter set #5, assay=GE5 LIZ120).
In this example, primer extension was carried out with LTA-2 (FIG. 1F) as a Rp+Sp racemic mixture of α-thiotriphosphate, using the conditions described in Example 7.
In further experiments, single-base extension reactions (10 ul) were performed with an equimolar mixture (3 uM each) of two single-stranded oligommcleotides:
Both were labeled with Fam but distinguishable by their lengths using capillary electrophoresis. Primer extension reactions were performed using the following three Pfu mutants at a concentration of 18 nM polymerase: • Pfu10: Pfu polymerase with D141A/E143A/A486L/Y546H/K477W mutations (SEQ ID NO:2) • Pfu26: Pfu polymerase with D141A/E143A/A486L/Y546H/K477W/L409Y mutations (SEQ ID NO:4) • Pfu48: Pfu polymerase with D141A/E143A/A486R/Y546H/K477W/L409Y mutations (SEQ ID NO:5) The extension reactions also employed individual αS-modified LTs in Rp+Sp racemic mixture (namely, LTA-2, LTU-2, LTG-2, and LTC-2) at final concentrations of 5 uM. LTU-2, LTG-2, and LTC-2 are all C7 or C5-hydroxymethyl-a-tert-butyl-2-nitrobenzyl modified reversible terminators like LTA-2, with uracil, guanine, and cytosine in place of adenine. […] Reactions were incubated, stopped, UV-treated, and analyzed as described in Example 7.
(§1) Primer extensions were carried out in duplicate 25 ul reactions containing 7.5 U calf thymus TdT, 1×Promega TdT buffer (with CoCl2), varying concentrations of LTA-1 (100 uM, 50 uM, 10 uM, 5 uM, or 1 uM), and either 2 uM (FIG. 11A to 11C) or 80 nM (FIG. 11D to 11F) of a priming strand (Fam-labeled T7 F primer (6Fam […]), SEQ ID NO:8). Controls were performed without the addition of a polymerase. Primer extensions were also carried out in reactions containing the Pfu26 mutant polymerase, 60 nM of the priming strand, and various concentrations (10 μM or 5 μM or 1 μM) of LTA-1 or LTA-2.

[2] = test system: LTA-2; assay: Multi-cycle template-independent addition of LTA-2 (TiEOS); conditions: 7-deaza-7-hydroxymethyl-α-tert-butyl-2-nitrobenzyl modified LTA, 3 or 6 cycles
Procedure: This example tested the multi-cycle addition of a 3′-OH unblocked reversible terminator (LTA-2, shown in FIG. 1F) to the 3′ end of a single-stranded priming strand using the Pfu26 mutant polymerase. Single-base extension assays were performed as described in Example 7 using Pfu26 with modified LTA-2 that has a-tert-butyl substituted 2-nitrobenyl terminating group attached to 7-deaza-C7hydroxymethyl group. The modified LTA-2 optionally contains the αS triphosphate modification and HPLC-purified to isolate the Sp isomer (FIGS. 13A and 13C). At each incorporation cycle (3 cycles-FIGS. 13A&13B; 6 cycles-FIG. 13C), 1 ul was removed and saved on ice for ABI 3500 analysis. At each cycle, the remaining reaction volume was purified using MyOne T1 […] beads as follows (for the 3-cycle experiment). 127.5 ul of beads were washed 2×in 1 ml wash solution and resuspended in the original volume with the wash solution. A biotinylated, antisense T7 (underlined) primer with spacer (5′-CCCTATAGTGAGTCGTATACGGAGCATA-biotin) was added at a final concentration of 180 nM. The beads and capture oligo were mixed at 300 rpm for 30 min. at room temperature, washed 2×in 500 ul wash solution, and resuspended in 150 ul of the same. […] After purification (cycles 2-6), 2 ul of fresh enzyme/LTA mix was added, and the primer extensions were performed and analyzed as described above.

[3] = test system: LTA-1; assay: Template-independent incorporation of LTA-1 to a priming strand
Procedure: This example tested the addition of a 3′-OH unblocked reversible terminator (LTA-1, shown in FIG. 1E, or LTA-2, shown in FIG. 1F) to the 3′ end of a single-stranded priming strand. The extension reaction was performed with 2 uM or 80 nM of a priming strand and varying concentrations (100/50/10/5/1 μM) of the reversible terminator. The performance of the Pfu26 polymerase was compared to TdT polymerase.
as §1
Reactions were incubated at 37° C. for 30 min., and then heat-killed for 10 min. at 70° C. Reaction products were split in half, and one-half was treated with UV as described in Example 7. Reactions were then diluted 1:333 (2 uM primer) or 1:13 (80 nM primer) in water, and 0.5 ul portions were analyzed by capillary electrophoresis using the conditions provided in Example 7.

B1: Pfu26: Pfu D141A/E143A/A486L/Y546H/K477W/L409Y, SEQ ID NO:4 (protein)
chain: MILDVDYITEEGKPVIRLFKKENGKFKIEHDRTFRPYIYALLRDDSKIEEVKKITGERHGKIVRIVDVEKVEKKFLGKPITVWKLYLEHPQDVPTIREKVREHPAVVDIFEYDIPFAKRYLIDKGLIPMEGEEELKILAFAIATLYHEGEEFGKGPIIMISYADENEAKVITWKNIDLPYVEVVSSEREMIKRFLRIIREKDPDIIVTYNGDSFDFPYLAKRAEKLGIKLTIGRDGSEPKMQRIGDMTAVEVKGRIHFDLYHVITRTINLPTYTLEAVYEAIFGKPKEKVYADEIAKAWESGENLERVAKYSMEDAKATYELGKEFLPMEIQLSRLVGQPLWDVSRSSTGNLVEWFLLRKAYERNEVAPNKPSEEEYQRRLRESYTGGFVKEPEKGLWENIVYLDFRAYYPSIIITHNVSPDTLNLEGCKNYDIAPQVGHKFCKDIPGFIPSLLGHLLEERQKIKTKMKETQDPIEWILLDYRQKLIKLLANSFYGYYGYAKARWYCKECAESVTAWGRKYIELVWKELEEKFGFKVLYIDTDGLHATIPGGESEEIKKKALEFVKYINSKLPGLLELEYEGFYKRGFFVTKKRYAVIDEEGKVITRGLEIVRRDWSEIAKETQARVLETILKHGDVEEAVRIVKEVIQKLANYEIPPEKLAIYEQITRPLHEYKAIGPHVAVAKKLAAKGVKIKPGMVIGYIVLRGDGPISNRAILAEEYDPKKHKYDAEYYIENQVLPAVLRILEGFGYRKEDLRYQKTRQVGLTSWLNIKKS
modifications: Mutant of Pyrococcus furiosus Polymerase
[1]; 18 nM polymerase, 5 uM terminators, CE2 and T7 oligonucleotides
  Template-independent incorporation of LTA-2, LTU-2, LTG-2 and LTC-2 (in words): superior to Calf thymus Terminal Transferase (TdT)
[1]; single-stranded priming strand
  Template-independent incorporation of LTA-2 (in words): efficient incorporation and termination
[2]
  Multi-cycle addition of LTA-2 (in words): did not generate an individual product with 100% efficiency after 2-3 rounds of TiEOS
[3]
  Template-independent incorporation of LTA-1 (in words): incorporate LTA-1 less efficiently
